Legend:
[1] = biological target: αHGF S3gG (HGF-specific 3-piece Surrobody); assay: capture ELISA: anti-VpreB1 IgG (2460B04 IgG1) coated, S3gG diluted in 50% mouse serum; the concentration is that of S3gG
[2] = biological target: αHGF S2gG (HGF-specific 2-piece Surrobody); assay: capture ELISA: anti-VpreB1 IgG (2460B04 IgG1) coated, S2gG diluted in 50% human or 50% monkey serum, detected with HRP-goat anti-E tag antibody; the concentration is that of S2gG
[3] = biological target: αHGF S2gG (HGF-specific 2-piece Surrobody); assay: capture ELISA: anti-VpreB1 IgG (2460B04 IgG1) coated, S2gG diluted without serum, detected with HRP-goat anti-E tag antibody; the concentration is that of S2gG
[4] = biological target: αHGF S3gG (HGF-specific 3-piece Surrobody); assay: capture ELISA: anti-VpreB1 IgG (2460B04 IgG1) coated, S3gG diluted without serum; the concentration is that of S3gG
[5] = biological target: αHGF S3gG (HGF-specific 3-piece Surrobody); assay: capture ELISA: anti-VpreB1 IgG (2460B04 IgG1) coated, S3gG diluted in 50% human or 50% monkey serum; the concentration is that of S3gG
[6] = biological target: αHGF S2gG (HGF-specific 2-piece Surrobody); assay: capture ELISA: anti-VpreB1 IgG (2460B04 IgG1) coated, S2gG diluted in 50% mouse serum, detected with HRP-goat anti-E tag antibody; the concentration is that of S2gG

B1: anti-human VpreB1 IgG1 (2460B04 IgG1) (antibody, V domains shown)
VH: EVQLVESGGGLVKPGGSLRLSCAASGFTFSNFEMNWVRQAPGKGLEWVSGISSNGRYINYADSVKGRFTISRDNAKNSLYLQMNSLRAEDTAVYYCARVVDFDQDYNGFDYWGQGTLVTVSS
VL: DIQLTQSPSFLSASVGDRVTITCRASQGISTDLNWYQQKPGKAPKLLIYAASNLESGVPSRFSGSGSGTEFTLTISSLQPEDFATYYCQQSYNWPYTFGGGTKVEIK
modifications: Used unlabeled, biotin-, DIG- or HRP-labeled; the letters do not carry the labels.
EC50 (read off the curve) [1]: 20 ng/mL
EC50 (read off the curve) [2]: 6 ng/mL
EC50 (read off the curve) [3]: 4 ng/mL
EC50 (read off the curve) [4]: 4 ng/mL
EC50 (read off the curve) [5]: 6 ng/mL
EC50 (read off the curve) [6]: 20 ng/mL
